Test results as given in patent publication US20200239570A1 (CRESCENDO BIOLOGICS, published 2020).

Experiments:
[1] = target: T1, mouse PD1 (R&D Systems cat no. 1021-PD) (mouse, UniProt Q02242 25-167); assay: HTRF binding assay, 2 nM mouse PD-1
T1 construct: bought recombinant protein; also called mouse PD-1 protein
T1 sequence (looked up): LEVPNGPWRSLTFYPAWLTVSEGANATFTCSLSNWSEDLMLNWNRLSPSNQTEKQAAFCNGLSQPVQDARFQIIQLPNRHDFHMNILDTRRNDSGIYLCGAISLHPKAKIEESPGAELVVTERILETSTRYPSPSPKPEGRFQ

[2] = target: T2, human PD-1 expressed on cells (CHO human PD-1 cells) (human, UniProt Q15116 21-288); assay: FMAT, His-tagged VH on CHO human PD-1 cells
T2 construct: CHO cells in the FMAT assays; Jurkat reporter cells in the reporter assay; primary CD4+ T cells in the mixed lymphocyte reaction; also called CHO TREX human PD1 cell line; CHO PD-1
T2 sequence (Q15116 21-288): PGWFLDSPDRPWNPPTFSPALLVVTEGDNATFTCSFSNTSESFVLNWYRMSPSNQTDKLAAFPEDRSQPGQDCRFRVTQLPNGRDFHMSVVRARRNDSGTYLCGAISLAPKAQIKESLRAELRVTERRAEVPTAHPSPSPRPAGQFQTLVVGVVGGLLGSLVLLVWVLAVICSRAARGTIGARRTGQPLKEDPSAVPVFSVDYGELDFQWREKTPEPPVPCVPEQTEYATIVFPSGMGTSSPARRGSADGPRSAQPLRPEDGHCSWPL

[3] = target: T3, recombinant human PD-1 Fc chimera (human, UniProt Q15116 25-167); assay: HTRF binding assay, His-tagged VH on 2 nM recombinant PD-1
T3 construct: Bought (R&D 1086-PD); Labelled with europium cryptate in the PD-L2 HTRF assay; also called human PD-1 (R&D Systems cat no. 1086-PD); human PD-1-huFc; not shown: human Fc of the bought chimera
T3 sequence (Q15116 25-167, change not shown): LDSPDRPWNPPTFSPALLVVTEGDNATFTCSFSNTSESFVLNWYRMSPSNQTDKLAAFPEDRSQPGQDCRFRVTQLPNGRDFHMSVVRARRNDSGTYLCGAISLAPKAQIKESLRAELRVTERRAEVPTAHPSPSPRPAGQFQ
Experimental: (§1) Purified VH were tested for their ability to bind to human PD-1 (R&D Systems cat no. 1086-PD), cynomolgus PD-1 (Acro Biosystems cat no. PD1-C5254) and mouse PD1 (R&D Systems cat no. 1021-PD) in an HTRF Binding assay format. All reagents and serially diluted VH were prepared in assay buffer containing PBS, 0.1% BSA and 0.4M Potassium Fluoride. Samples or assay buffer (non-specific binding) were incubated with 2 nM human/cynomolgus or mouse PD-1, 1 nM Anti human-Fc Cryptate PAb (Cisbio cat. no. 61HFCKLB) and 30 nM anti His-D2 (CisBio cat no 61HISDLA) in black 384-shallow well assay plates for a minimum of 3 hours at room temperature. Time-resolved fluorescent emission at 620 nm and 665 nm was measured following excitation at 337 nm on the BMG PHERAstar plate reader. The HTRF ratio were calculated ((665 nm emission/620 nm emission)*10000) and the data corrected for (non-specific binding) to give the specific binding signal.

[4] = target: T4, cynomolgus PD-1 (Acro Biosystems cat no. PD1-C5254) (cynomolgus, UniProt B0LAJ3 25-170); assay: as above
T4 construct: bought recombinant protein; also called cyno PD-1; cynomolgus PD-1 recombinant protein; not shown: Human Fc tag of the vendor's construct, and any linker to it; The Fc is implied by detection with anti human-Fc cryptate
T4 sequence (B0LAJ3 entry or part of it limits assumed): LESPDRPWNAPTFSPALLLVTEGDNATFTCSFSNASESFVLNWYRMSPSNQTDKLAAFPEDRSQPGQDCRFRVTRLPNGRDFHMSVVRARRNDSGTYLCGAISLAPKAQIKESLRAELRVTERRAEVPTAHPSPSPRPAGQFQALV
Experimental: as §1

[5] = target: T3, recombinant human PD-1 Fc chimera; assay: SPR (Biacore T200), PD-1-huFc amine-coupled to CM5, single cycle kinetics, 1:1 fit
Experimental: Binding kinetics of certain VH single domain antibodies binding to human PD-1-huFc were measured by surface plasmon resonance (SPR) technology using Biacore T200 instrument (GE Healthcare). Recombinant human PD-1-huFc was immobilized by standard amine coupling to CM5 sensorschip (GE Healthcare) using 0.01 mg/ml solution of antigen in 10 mM sodium acetate at pH 5.5. For the reference flow cell, a blank immobilisation was carried out. Single cycle kinetics assays were used to study the interaction, a five point, three-fold dilution series of each Humabody® was made with a top concentration of 30 nM. The binding kinetics were followed by flowing the Humabody® over the chip surface in HBS EP+ buffer at a flow rate of 30 μl/min. The contact time for each of the association steps was 180 seconds and the dissociation step was varied between 1200-3600 seconds. The data was fitted to a 1:1 binding model after double reference subtraction using the Biacore T200 Evaluation software.

[6] = target: T2, human PD-1 expressed on cells (CHO …); assay: FMAT epitope competition on CHO human PD-1 cells; competitor 2 nM 1.1-Strep tagged protein
Experimental: (§2) For the epitope competition assay reagents were prepared in FMAT assay buffer. […] Plates were incubated for a minimum of 1.5 hours at room temperature then fluorescence measured in the FL2 (502 nm-537 nm) and FL5 (677-800 nm) channels on the Mirrorball plate reader (TTP) following excitation at 488 nm and 640 nm. Data was expressed as a % of the total binding control (i.e. % control) after subtraction of the background signal determined from the non-specific binding control wells.

[7] = target: T2, human PD-1 expressed on cells (CHO …); assay: FMAT epitope competition on CHO human PD-1 cells; competitor 2 nM 2.1-Strep tagged protein
Experimental: as §2

[8] = target: T2, human PD-1 expressed on cells (CHO …); assay: 2.1 epitope competition assay (FMAT, CHO human PD-1 cells; competitor 2.1-Strep); VH pre-incubated in mouse serum, Day 0
Experimental: (§3) Serum stability of VH was assessed by measurement of its activity following incubation for 0, 1, 4 or 7 days in both human and mouse serum (Sigma M5905). The pre-incubated samples were serially diluted and tested in the 2.1 epitope competition assay.
as §2

[9] = target: T2, human PD-1 expressed on cells (CHO …); assay: 2.1 epitope competition assay (FMAT, CHO human PD-1 cells; competitor 2.1-Strep); VH pre-incubated in human serum at 37 C, Day 1
Experimental: as §3, §2

[10] = target: T2, human PD-1 expressed on cells (CHO …); assay: 2.1 epitope competition assay (FMAT, CHO human PD-1 cells; competitor 2.1-Strep); VH pre-incubated in human serum at 37 C, Day 4
Experimental: as §3, §2

[11] = target: T2, human PD-1 expressed on cells (CHO …); assay: 2.1 epitope competition assay (FMAT, CHO human PD-1 cells; competitor 2.1-Strep); VH pre-incubated in human serum at 37 C, Day 7
Experimental: as §3, §2

[12] = target: T2, human PD-1 expressed on cells (CHO …); assay: 2.1 epitope competition assay (FMAT, CHO human PD-1 cells; competitor 2.1-Strep); VH pre-incubated in mouse serum at 37 C, Day 1
Experimental: as §3, §2

[13] = target: T2, human PD-1 expressed on cells (CHO …); assay: 2.1 epitope competition assay (FMAT, CHO human PD-1 cells; competitor 2.1-Strep); VH pre-incubated in mouse serum at 37 C, Day 4
Experimental: as §3, §2

[14] = target: T2, human PD-1 expressed on cells (CHO …); assay: 2.1 epitope competition assay (FMAT, CHO human PD-1 cells; competitor 2.1-Strep); VH pre-incubated in mouse serum at 37 C, Day 7
Experimental: as §3, §2

[15] = target: T2, human PD-1 expressed on cells (CHO …); assay: 2.1 epitope competition assay (FMAT, CHO human PD-1 cells; competitor 2.1-Strep); VH pre-incubated in human serum, Day 0; Day 0, human serum
Experimental: as §3, §2

B1: Humabody VH 1.39 (VHH)
VHH: EVQLVESGGGLVQPGRSLRLSCAASGFTFDDYALHWVRQAPGKDLEWVSGISWNGGSYGYADSVKGRFTISRDNAKNSLYLQMNSLRAEDTALYYCVREKGPGLTGSTADYYGLDAWGQGTMVTVSS
notes: human VH single domain antibody
- binding result [1]: no binding
- EC50 [2]: 0.6 nM
- EC50 [3]: 2.6 nM
- EC50 [4]: 6 nM
- Kd [5]: 4.24 nM
- koff [5]: 0.00134 s⁻¹
- kon [5]: 316000 M⁻¹ s⁻¹
- IC50 [6]: 8.9 nM
- IC50 [7]: 9.7 nM
- IC50 [8]: 8.7 nM
- IC50 [9]: 10.1 nM
- IC50 [10]: 10.2 nM
- IC50 [11]: 9.3 nM
- IC50 [12]: 9.3 nM
- IC50 [13]: 11.1 nM
- IC50 [14]: 11.6 nM
- IC50 [15]: 12.9 nM
